Data published in paper PMC6136348, “In the quest for new targets for pathogen eradication: the adenylosuccinate synthetase from the bacterium Helicobacter pylori” (Journal of Enzyme Inhibition and Medicinal Chemistry, 2018).

Assays:
[1] = substrate: N[C@@H](CC(=O)O)C(=O)O; assay: Michaelis-Menten kinetics of the purified enzyme (Km); assay type: biochemical, Helicobacter pylori; settings: Mg2+
[2] = substrate: Nc1nc2c(ncn2[C@@H]2O[C@H](COP(=O)(O)OP(=O)(O)OP(=O)(O)O)[C@@H](O)[C@H]2O)c(=O)[nH]1; assay: as above; assay type: biochemical, Helicobacter pylori; settings: Mg2+

B1: adenylosuccinate synthetase (AdSS) (Helicobacter pylori 26695) (protein)
chain: MADVVVGIQWGDEGKGKIVDRIAKDYDFVVRYQGGHNAGHTIVHKGVKHSLHLMPSGVLYPKCKNIISSAVVVSVKDLCEEISAFEDLENRLFVSDRAHVILPYHAKKDAFKEKSQNIGTTKKGIGPCYEDKMARSGIRMGDLLDDKILEEKLNAHFKAIEPFKKAYDLGENYEKDLMGYFKTYAPKICPFIKDTTSMLIEANQKGEKILLEGAQGTLLDIDLGTYPFVTSSNTTSASACVSTGLNPKAINEVIGITKAYSTRVGNGPFPSEDTTPMGDHLRTKGAEFGTTTKRPRRCGWLDLVALKYACALNGCTQLALMKLDVLDGIDAIKVCVAYERKGERLEIFPSDLKDCVPIYQTFKGWEKSVGVRKLDDLEPNVREYIRFIEKEVGVKIRLISTSPEREDTIFL
notes: recombinant protein expressed from pET21b-HPpurA
Km [1]: 125.4 ± 7.7 µM
Vmax [1]: 1.1 µmol/min/mg
Km [2]: 8.7 ± 0.6 µM
Vmax [2]: 1.42 µmol/min/mg
